Data on five molecules can be found in patent US20230212587A1, “Mutant Hydroxyphenylpyruvate Dioxygenase Polypeptide, Encoding Gene Thereof and Use Therefor” (Beijing Dabeinong Biotechnology Co., Ltd., priority 2019, published 2023).

The test deals with Arabidopsis thaliana T1 plants. In words: Topramezone tolerance of transgenic Arabidopsis thaliana T1 plants (pesticide damage grade by bleached leaf area, score, resistance evaluation). Format: in vivo. Conditions: HPPDs from ecotypes of Triticum aestivum; for Classification and statistics of pesticide damage grade: Grade 0 / Classification and statistics of pesticide damage grade: Grade 1 / Classification and statistics of pesticide damage grade: Grade 2 / Classification and statistics of pesticide damage grade: Grade 3: number of plants. In short, it runs like this: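 Eighteen days after sowing, wild-type and HPPD-transgenic T1 Arabidopsis receive a topramezone spray at 1×, 2× or 4× field rate (25–100 g ai/ha) or water. Seven days later each plant is graded by its proportion of bleached leaf area.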

B1: TaHPPD5m-F372A-02: Triticum aestivum ecotype 5 HPPD mutant F372A, SEQ ID NO: 204 (protein)
chain: MPPTPTTPAATGAAAVTPEHARPRRMVRFNPRSDRFHTLAFHHVEFWCADAASAAGRFAFALGAPLAARSDLSTGNSVHASQLLRSGNLAFLFTAPYANGCDAATASLPSFSADAARQFSADHGLAVRSIALRVADAAEAFRASVDGGARPAFSPVDLGRGFGFAEVELYGDVVLRFVSHPDGRDVPFLPGFEGVSNPDAVDYGLTRFDHVVGNVPELAPAAAYVAGFTGFHEFAEFTTEDVGTAESGLNSMVLANNSEGVLLPLNEPVHGTKRRSQIQTFLEHHGGSGVQHIAVASSDVLRTLREMRARSAMGGFDFLPPPLPKYYEGVRRIAGDVLSEAQIKECQELGVLVDRDDQGVLLQIATKPVGDRPTLFLEMIQRIGCMEKDELFKSIEDYEKSLEAKQSAAVQGS
modifications: TaHPPD5m-F372A Amino Acid Sequence
Regarding B1, where the note is “topramezone 25 g ai/ha (1x)”, the Resistance evaluation entry is reported as “highly resistant (highly resistant plants (scores 0-15))”; the Scores was found to be 0; the “Classification and statistics of pesticide damage grade: Grade 0” value (“Classification and statistics … Grade 0” for short) came out at 16; the “Classification and statistics of pesticide damage grade: Grade 1” value (“Classification and statistics … Grade 1” below) was determined as 0. Besides, under “topramezone 25 g ai/ha (1x)”, the “Classification and statistics of pesticide damage grade: Grade 2” value (shortened to “Classification and statistics … Grade 2”) amounted to 0; the “Classification and statistics of pesticide damage grade: Grade 3” value (“Classification and statistics … Grade 3” for short) came out at 0. For the setting “topramezone 100 g ai/ha (4x)”, the Resistance evaluation entry is listed as “moderately resistant (moderately resistant plants (scores 16-33))”; the Scores amounted to 23; the “Classification and statistics … Grade 0” value turned out to be 6; the “Classification and statistics … Grade 1” value was determined as 9. For the setting “topramezone 100 g ai/ha (4x)”, the “Classification and statistics … Grade 2” value was 1; the “Classification and statistics … Grade 3” value was 0.

B2: TaHPPD6-02: native HPPD of Triticum aestivum ecotype 6, UniProt A0A3B5YPS5, SEQ ID NO: 207 (protein, listed as Triticum aestivum)
chain: MVRFNPGSDRFHTLAFHHIEFWCTDAASADGRFAFSLGAPLAARSDLSTGNSTHASQLLRPGSLAFLFTAPYANGCIFSVDAARRFFADHGLAVRSVALRVADAAKAFRASVDGGARPAFAPVDLGRGFGFAEVKLYGDVVLRFVSHPDGTDVPFLPGLFEGVSNPGAVHYGLTRFDHIVGNVPELAPAAAYVAGLTGFHEFAEFTTEDVGTAQSGLNSVVLANTSEGVPLLLNEPVHGTKRRRQIQTFLEHHGGPGVQHIAVASSEVFRTLREMHARSSMGGFDFLPPPLPKYYEGVRRLAGDVLSEAQIKECQELGVLVNRDDQGVLLQIFTKPVGDRPTFFLEMIQRIGCMEKDERGEEYQKGGCGGFGKGNISELFKSIEDYEKSLEAKQSAAVQGSYI
modifications: TaHPPD6 Amino Acid Sequence
For B2, where the note is “topramezone 25 g ai/ha (1x)”, the Resistance evaluation result is “non-resistant (non-resistant plants (scores 68-100))”; the Scores was 88; the “Classification and statistics … Grade 0” value amounted to 0; the “Classification and statistics … Grade 1” value amounted to 0. Moreover, where the note is “topramezone 25 g ai/ha (1x)”, the “Classification and statistics … Grade 2” value is reported as 6; the “Classification and statistics … Grade 3” value stood at 10. Where the note is “topramezone 100 g ai/ha (4x)”, the Resistance evaluation entry was “non-resistant (non-resistant plants (scores 68-100))”; the Scores worked out at 96; the “Classification and statistics … Grade 0” value turned out to be 0; the “Classification and statistics … Grade 1” value was found to be 0. For the same molecule, under “topramezone 100 g ai/ha (4x)”, the “Classification and statistics … Grade 2” value is given as 2; the “Classification and statistics … Grade 3” value came to 14.

B3: TaHPPD6m-F372A-02: Triticum aestivum ecotype 6 HPPD mutant F372A, SEQ ID NO: 210 (protein)
chain: MVRFNPGSDRFHTLAFHHIEFWCTDAASADGRFAFSLGAPLAARSDLSTGNSTHASQLLRPGSLAFLFTAPYANGCIFSVDAARRFFADHGLAVRSVALRVADAAKAFRASVDGGARPAFAPVDLGRGFGFAEVKLYGDVVLRFVSHPDGTDVPFLPGLFEGVSNPGAVHYGLTRFDHIVGNVPELAPAAAYVAGLTGFHEFAEFTTEDVGTAQSGLNSVVLANTSEGVPLLLNEPVHGTKRRRQIQTFLEHHGGPGVQHIAVASSEVFRTLREMHARSSMGGFDFLPPPLPKYYEGVRRLAGDVLSEAQIKECQELGVLVNRDDQGVLLQIATKPVGDRPTFFLEMIQRIGCMEKDERGEEYQKGGCGGFGKGNISELFKSIEDYEKSLEAKQSAAVQGSYI
modifications: TaHPPD6m-F372A Amino Acid Sequence
For the molecule B3, for the setting “topramezone 25 g ai/ha (1x)”, the Resistance evaluation result is “highly resistant (highly resistant plants (scores 0-15))”; the Scores stood at 0; the “Classification and statistics … Grade 0” value was found to be 16; the “Classification and statistics … Grade 1” value was 0. For the same molecule, where the note is “topramezone 25 g ai/ha (1x)”, the “Classification and statistics … Grade 2” value came out at 0; the “Classification and statistics … Grade 3” value came to 0. For the same molecule, where the note is “topramezone 100 g ai/ha (4x)”, the Resistance evaluation entry was “highly resistant (highly resistant plants (scores 0-15))”; the Scores worked out at 2; the “Classification and statistics … Grade 0” value is given as 15; the “Classification and statistics … Grade 1” value is reported as 1. Further, under “topramezone 100 g ai/ha (4x)”, the “Classification and statistics … Grade 2” value is 0; the “Classification and statistics … Grade 3” value turned out to be 0.

B4: TaHPPD7-02: native HPPD of Triticum aestivum ecotype 7, UniProt A7WK82, SEQ ID NO: 213 (protein, listed as Triticum aestivum)
chain: MPPTPTTPAATGAAAAAAVTPEHARPRRMVRFNPRSDRFHTLAFHHVEFWCADAASAAGRFAFALGAPLAARSDLSTGNSVHASQLLRSGNLAFLFTAPYANGCDAATASLPSFSADAARRFSADHGLAVRSIALRVADAAEAFRASVDGGARPAFSPVDLGRGFGFAEVELYGDVVLRFVSHPDGTDVPFLPGFEGVSNPDAVDYGLTRFDHVVGNVPELAPAAAYVAGFTGFHEFAEFTTEDVGTAESGLNSMVLANNSEGVLLPLNEPVHGTKRRSQIQTFLEHHGGPGVQHIAVASSDVLRTLREMRARSAMGGFDFLPPPLPKYYEGVRRIAGDVLSEAQIKECQELGVLVDRDDQGVLLQIFTKPVGDRPTCSWR
modifications: TaHPPD7 Amino Acid Sequence
On to B4, for which, where the note is “topramezone 25 g ai/ha (1x)”, the Resistance evaluation entry was “non-resistant (non-resistant plants (scores 68-100))”; the Scores is reported as 100; the “Classification and statistics … Grade 0” value came to 0; the “Classification and statistics … Grade 1” value was 0. For the setting “topramezone 25 g ai/ha (1x)”, the “Classification and statistics … Grade 2” value is listed as 0; the “Classification and statistics … Grade 3” value is on record as 16. Further, under “topramezone 100 g ai/ha (4x)”, the Resistance evaluation result is listed as “non-resistant (non-resistant plants (scores 68-100))”; the Scores is 100; the “Classification and statistics … Grade 0” value came to 0; the “Classification and statistics … Grade 1” value worked out at 0. Under “topramezone 100 g ai/ha (4x)”, the “Classification and statistics … Grade 2” value came out at 0; the “Classification and statistics … Grade 3” value is recorded as 16.

B5: TaHPPD7m-F372A-02: Triticum aestivum ecotype 7 HPPD mutant F372A, SEQ ID NO: 216 (protein)
chain: MPPTPTTPAATGAAAAAAVTPEHARPRRMVRFNPRSDRFHTLAFHHVEFWCADAASAAGRFAFALGAPLAARSDLSTGNSVHASQLLRSGNLAFLFTAPYANGCDAATASLPSFSADAARRFSADHGLAVRSIALRVADAAEAFRASVDGGARPAFSPVDLGRGFGFAEVELYGDVVLRFVSHPDGTDVPFLPGFEGVSNPDAVDYGLTRFDHVVGNVPELAPAAAYVAGFTGFHEFAEFTTEDVGTAESGLNSMVLANNSEGVLLPLNEPVHGTKRRSQIQTFLEHHGGPGVQHIAVASSDVLRTLREMRARSAMGGFDFLPPPLPKYYEGVRRIAGDVLSEAQIKECQELGVLVDRDDQGVLLQIATKPVGDRPTCSWR
modifications: TaHPPD7m-F372A Amino Acid Sequence
For the molecule B5, under “topramezone 25 g ai/ha (1x)”, the Resistance evaluation result was “highly resistant (highly resistant plants (scores 0-15))”; the Scores came out at 8; the “Classification and statistics … Grade 0” value was 12; the “Classification and statistics … Grade 1” value was 4. Moreover, for the setting “topramezone 25 g ai/ha (1x)”, the “Classification and statistics … Grade 2” value amounted to 0; the “Classification and statistics … Grade 3” value was 0. Moreover, under “topramezone 100 g ai/ha (4x)”, the Resistance evaluation result is “moderately resistant (moderately resistant plants (scores 16-33))”; the Scores worked out at 21; the “Classification and statistics … Grade 0” value is 6; the “Classification and statistics … Grade 1” value was 10. For the setting “topramezone 100 g ai/ha (4x)”, the “Classification and statistics … Grade 2” value stood at 0; the “Classification and statistics … Grade 3” value is recorded as 0.
